Assay results from paper doi:10.1101/2021.08.26.457770 (bioRxiv, 2021).
Ends that are not written are not given here.

T1: SspB protein (ClpX adaptor) (Escherichia coli, UniProt P0AFZ3 1-165)
T1 sequence: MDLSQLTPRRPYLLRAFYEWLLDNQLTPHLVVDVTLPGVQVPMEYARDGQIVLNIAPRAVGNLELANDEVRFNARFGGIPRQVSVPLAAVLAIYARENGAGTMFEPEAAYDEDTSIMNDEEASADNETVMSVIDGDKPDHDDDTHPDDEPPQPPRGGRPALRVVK


Biological target: T1, SspB protein (ClpX adaptor)
Experiment: MST

Binder	Kd [nM]
eGFP-AANDENYALAA (not fully specified) [eGFP-AANDENYALAA]	80
eGFP-AANDENYSENY (not fully specified) [eGFP-AANDENYSENY]	100
eGFP-AANDENYADAS (not fully specified) [eGFP-AANDENYADAS]	330
eGFP-AANDENYSENYADAS (not fully specified) [eGFP-AANDENYSENYADAS]	300
